The source of these data is US20240279318A1 (NANJING LEGEND BIOTECH, published 2024).

Like-named read-outs stand apart in the source and are kept apart here.

Assay [1] addresses T1, AFP158/HLA-A*02:01 complex (human).
T1 construct: biotinylated on the BSP by BirA for ELISA and panning; also called biotinylated AFP158/HLA-A*02:01 complex; Bio-AFP158
Put plainly: SPR, antibody captured via mIgG2a-Fc, complex as analyte.
Experimental: The binding affinity between selected antibodies and AFP158/HLA-A*02:01 complex was determined by surface plasmon resonance (SPR) on a BIAcore T200 instrument (GE Healthcare). The experiment was carried out as follows. The purified sdAb/scFv-mIgG2aFc protein were captured through mIgG2a-Fc onto the sensorchip. […] On-rate (kₐ) and off-rate (kd) were calculated based on association and dissociation curve, and were used to estimate the equilibrium dissociation constant (KD).

Assay [2] has as its target T2, AFP158/HLA-A*02:01 complex (human).
T2 construct: flowed as analyte in SPR
Put plainly: SPR, crude scFv captured, pMHC analyte. For orientation: Surface plasmon resonance follows binding to a sensor surface in real time, without labels.
Experimental: (§1) The experiment was carried out as follows. The crude scFv protein were captured onto the sensorchip. Different concentrations (320, 160, 40 nM) of AFP158/HLA-A*02:01 complex flowed over the sensorchip surface, and were allowed to bind the antibody fragment for 100 s followed by injection of the running buffer to allow dissociation of the complex. On-rate (kd) and off-rate (kd) were calculated based on association and dissociation curve, and were used to estimate the equilibrium dissociation constant (KD).
(§2) The crude scFv muteins were then subjected to SPR affinity measurement by the method mentioned above.

Assay [3] concerns the target T2, AFP158/HLA-A*02:01 complex. Put plainly: SPR, crude scFv captured, pMHC analyte. This is another data set of the same source.
Experimental: as §1
Assay [4] addresses T2, AFP158/HLA-A*02:01 complex. The experiment in a line: SPR, crude scFv captured, pMHC analyte. This is another data set of the same source.
The target in assay [5] is T2, AFP158/HLA-A*02:01 complex. The experiment in a line: SPR, fold vs AS170036 VL1VH1.
Experimental: as §1, §2
Assay [6] addresses T2, AFP158/HLA-A*02:01 complex. Put plainly: SPR, fold vs AS170036 VL1VH1. The source holds these as a separate data set.
Experimental: as §1, §2
The target of assay [7] is T2, AFP158/HLA-A*02:01 complex. Put plainly: SPR, fold vs AS170036 VL1VH1. This is another data set of the same source.
Experimental: as §1
For assay [8], the target named is T3, AFP158/HLA-A*02:01 complex (human).
T3 construct: flowed over the chip as analyte; also called AFP158 peptide/HLA-A*02:01 complex
Put plainly: SPR (BIAcore T200), crude scFv captured, complex flowed over.
Experimental: as §1
The 84 muteins were then tested for their selectivity. The 12 recombinant AFP158 homologous peptides/HLA-A*02:01 complex were mixed in three groups (group 1: ZNF566 and ARNTL, group 2: CDC14A, PTP4A1, BRCA2 and RCL1, group 3: OR1I1, OR51B6, OR6C1, ATG9A, RP1 and NR2E1). The binding of the 84 antibodies to these complexes were then measured by method described above.

B1: AS167821 sdAb-mIgG2aFc (Fc fusion, not shown: a dimerising Fc or GST)
chain: QVRLVESGGGSVQAGGSLRLSCAASGRTYSTYCMGWFRQAPGKEREGVATIYIGSGRTYYVDSVKGRFTISQDNAKNTLYLQMNNLKPEDTAMYYCTADVDPYESSWSRGLGYWGQGTQVTVSS
notes: i647-labelled for flow cytometry
As to B1, in assay [1], the Kd turned out to be 95 nM, the koff came to 0.039 s⁻¹ and the kon was 410000 M⁻¹ s⁻¹.

B2: AS170036 VL1VH1 (scFv)
scFv: QSALTQPRSVSGSPGQSVTISCAGTSSDVGSENYVSWYQQHPGKAPKLMIYQVNKRASGVPDRFSGSKSGNTASLTISGLQAEDEADYYCASYRSSDHNIVFGGGTKLTVLGGGGSGGGGSGGGGSEVQLVESGGGLVQPGGSLRLSCAASGFTFSSYAMSWVRQAPGKGLEWVSTINSGTGSPYYADSVKGRFTISRDNSKNTLYLQMNSLRAEDTAVYYCAKNFFDGSWFLGPPAMDYWGQGTLVTVSSHHHHHH
notes: Crude scFv from E. coli TG1 supernatant; also called AS170036 VL1VH1 scFv
For the molecule B2, the Kd in assay [2] is 230 nM; in assay [3], 270 nM; in assay [4] it was 230 nM. For the same molecule, the koff in assay [2] turned out to be 0.11 s⁻¹; in assay [3], 0.1 s⁻¹; in assay [4], 0.11 s⁻¹. The kon in assay [2] amounted to 490000 M⁻¹ s⁻¹; in assay [3], 380000 M⁻¹ s⁻¹; in assay [4] it was 490000 M⁻¹ s⁻¹. In addition, the Affinity increase in assay [5], in assay [6] and in assay [7] was 1 fold each time.

B3: AS170036 VL1VH1 (scFv)
scFv: QSALTQPRSVSGSPGQSVTISCAGTSSDVGSENYVSWYQQHPGKAPKLMIYQVNKRASGVPDRFSGSKSGNTASLTISGLQAEDEADYYCASYRSSDHNIVFGGGTKLTVLGGGGSGGGGSGGGGSEVQLVESGGGLVQPGGSLRLSCAASGFTFSSYAMSWVRQAPGKGLEWVSTINSGTGSPYYADSVKGRFTISRDNSKNTLYLQMNSLRAEDTAVYYCAKNFFDGSWFLGPPAMDYWGQGTLVTVSSHHHHHH
notes: Crude scFv from E. coli TG1 supernatant, captured on the chip; also called AS170036 VL1VH1 scFv
Regarding B3, the SPR binding level in assay [8] came to 196 RU.

B4: 27-AS170036 VL1VH1-57K108S (scFv)
scFv: QSALTQPRSVSGSPGQSVTISCAGTSSDVGSENYVSWYQQHPGKAPKLMIYQVNKRASGVPDRFSGSKSGNTASLTISGLQAEDEADYYCASYRSSDHNIVFGGGTKLTVLGGGGSGGGGSGGGGSEVQLVESGGGLVQPGGSLRLSCAASGFTFSSYAMSWVRQAPGKGLEWVSTINSGTGKPYYADSVKGRFTISRDNSKNTLYLQMNSLRAEDTAVYYCAKNFFDGSWFLSPPAMDYWGQGTLVTVSSHHHHHH
notes: Crude scFv mutein of AS170036 VL1VH1
Consider B4, for which the SPR binding level in assay [8] worked out at 627 RU.

B5: 42-AS170036 VL1VH1-56Y98F108S (scFv)
scFv: QSALTQPRSVSGSPGQSVTISCAGTSSDVGSENYVSWYQQHPGKAPKLMIYQVNKRASGVPDRFSGSKSGNTASLTISGLQAEDEADYYCASYRSSDFNIVFGGGTKLTVLGGGGSGGGGSGGGGSEVQLVESGGGLVQPGGSLRLSCAASGFTFSSYAMSWVRQAPGKGLEWVSTINSGTYSPYYADSVKGRFTISRDNSKNTLYLQMNSLRAEDTAVYYCAKNFFDGSWFLSPPAMDYWGQGTLVTVSSHHHHHH
notes: as for B4
In turn, B5 registered an SPR binding level in assay [8] of 682 RU.

B6: 16-AS170036 VL1VH1-56Y108A (scFv)
scFv: QSALTQPRSVSGSPGQSVTISCAGTSSDVGSENYVSWYQQHPGKAPKLMIYQVNKRASGVPDRFSGSKSGNTASLTISGLQAEDEADYYCASYRSSDHNIVFGGGTKLTVLGGGGSGGGGSGGGGSEVQLVESGGGLVQPGGSLRLSCAASGFTFSSYAMSWVRQAPGKGLEWVSTINSGTYSPYYADSVKGRFTISRDNSKNTLYLQMNSLRAEDTAVYYCAKNFFDGSWFLAPPAMDYWGQGTLVTVSSHHHHHH
notes: as for B4
In assay [8], B6 returned an SPR binding level of 601 RU.

B7: 22-AS170036 VL1VH1-57H108A (scFv)
scFv: QSALTQPRSVSGSPGQSVTISCAGTSSDVGSENYVSWYQQHPGKAPKLMIYQVNKRASGVPDRFSGSKSGNTASLTISGLQAEDEADYYCASYRSSDHNIVFGGGTKLTVLGGGGSGGGGSGGGGSEVQLVESGGGLVQPGGSLRLSCAASGFTFSSYAMSWVRQAPGKGLEWVSTINSGTGHPYYADSVKGRFTISRDNSKNTLYLQMNSLRAEDTAVYYCAKNFFDGSWFLAPPAMDYWGQGTLVTVSSHHHHHH
notes: as for B4
In turn, B7 yielded an SPR binding level in assay [8] of 571 RU.

B8: 15-AS170036 VL1VH1-57M98Q (scFv)
scFv: QSALTQPRSVSGSPGQSVTISCAGTSSDVGSENYVSWYQQHPGKAPKLMIYQVNKRASGVPDRFSGSKSGNTASLTISGLQAEDEADYYCASYRSSDQNIVFGGGTKLTVLGGGGSGGGGSGGGGSEVQLVESGGGLVQPGGSLRLSCAASGFTFSSYAMSWVRQAPGKGLEWVSTINSGTGMPYYADSVKGRFTISRDNSKNTLYLQMNSLRAEDTAVYYCAKNFFDGSWFLGPPAMDYWGQGTLVTVSSHHHHHH
notes: as for B4
B8: the SPR binding level in assay [8] turned out to be 554 RU.

B9: 19-AS170036 VL1VH1-56N108A (scFv)
scFv: QSALTQPRSVSGSPGQSVTISCAGTSSDVGSENYVSWYQQHPGKAPKLMIYQVNKRASGVPDRFSGSKSGNTASLTISGLQAEDEADYYCASYRSSDHNIVFGGGTKLTVLGGGGSGGGGSGGGGSEVQLVESGGGLVQPGGSLRLSCAASGFTFSSYAMSWVRQAPGKGLEWVSTINSGTNSPYYADSVKGRFTISRDNSKNTLYLQMNSLRAEDTAVYYCAKNFFDGSWFLAPPAMDYWGQGTLVTVSSHHHHHH
notes: as for B4
In the case of B9, the SPR binding level in assay [8] came to 526 RU.

B10: 03-AS170036 VL1VH1-56Y98Q (scFv)
scFv: QSALTQPRSVSGSPGQSVTISCAGTSSDVGSENYVSWYQQHPGKAPKLMIYQVNKRASGVPDRFSGSKSGNTASLTISGLQAEDEADYYCASYRSSDQNIVFGGGTKLTVLGGGGSGGGGSGGGGSEVQLVESGGGLVQPGGSLRLSCAASGFTFSSYAMSWVRQAPGKGLEWVSTINSGTYSPYYADSVKGRFTISRDNSKNTLYLQMNSLRAEDTAVYYCAKNFFDGSWFLGPPAMDYWGQGTLVTVSSHHHHHH
notes: as for B4
Turning to B10, the SPR binding level in assay [8] came out at 738 RU.

B11: 43-AS170036 VL1VH1-56Y98I108A (scFv)
scFv: QSALTQPRSVSGSPGQSVTISCAGTSSDVGSENYVSWYQQHPGKAPKLMIYQVNKRASGVPDRFSGSKSGNTASLTISGLQAEDEADYYCASYRSSDINIVFGGGTKLTVLGGGGSGGGGSGGGGSEVQLVESGGGLVQPGGSLRLSCAASGFTFSSYAMSWVRQAPGKGLEWVSTINSGTYSPYYADSVKGRFTISRDNSKNTLYLQMNSLRAEDTAVYYCAKNFFDGSWFLAPPAMDYWGQGTLVTVSSHHHHHH
notes: as for B4
Regarding B11, in assay [8], the SPR binding level turned out to be 664 RU.

B12: 40-AS170036 VL1VH1-56Y98F108A (scFv)
scFv: QSALTQPRSVSGSPGQSVTISCAGTSSDVGSENYVSWYQQHPGKAPKLMIYQVNKRASGVPDRFSGSKSGNTASLTISGLQAEDEADYYCASYRSSDFNIVFGGGTKLTVLGGGGSGGGGSGGGGSEVQLVESGGGLVQPGGSLRLSCAASGFTFSSYAMSWVRQAPGKGLEWVSTINSGTYSPYYADSVKGRFTISRDNSKNTLYLQMNSLRAEDTAVYYCAKNFFDGSWFLAPPAMDYWGQGTLVTVSSHHHHHH
notes: as for B4
With B12, the SPR binding level in assay [8] was 587 RU.

B13: 34-AS170036 VL1VH1-98I108A (scFv)
scFv: QSALTQPRSVSGSPGQSVTISCAGTSSDVGSENYVSWYQQHPGKAPKLMIYQVNKRASGVPDRFSGSKSGNTASLTISGLQAEDEADYYCASYRSSDINIVFGGGTKLTVLGGGGSGGGGSGGGGSEVQLVESGGGLVQPGGSLRLSCAASGFTFSSYAMSWVRQAPGKGLEWVSTINSGTGSPYYADSVKGRFTISRDNSKNTLYLQMNSLRAEDTAVYYCAKNFFDGSWFLAPPAMDYWGQGTLVTVSSHHHHHH
notes: as for B4
Take B13: the SPR binding level in assay [8] was 559 RU.

B14: 05-AS170036 VL1VH1-56N98I (scFv)
scFv: QSALTQPRSVSGSPGQSVTISCAGTSSDVGSENYVSWYQQHPGKAPKLMIYQVNKRASGVPDRFSGSKSGNTASLTISGLQAEDEADYYCASYRSSDINIVFGGGTKLTVLGGGGSGGGGSGGGGSEVQLVESGGGLVQPGGSLRLSCAASGFTFSSYAMSWVRQAPGKGLEWVSTINSGTNSPYYADSVKGRFTISRDNSKNTLYLQMNSLRAEDTAVYYCAKNFFDGSWFLGPPAMDYWGQGTLVTVSSHHHHHH
notes: as for B4
B14 returned an SPR binding level in assay [8] of 564 RU.

B15: 45-AS170036 VL1VH1-56Y98I108S (scFv)
scFv: QSALTQPRSVSGSPGQSVTISCAGTSSDVGSENYVSWYQQHPGKAPKLMIYQVNKRASGVPDRFSGSKSGNTASLTISGLQAEDEADYYCASYRSSDINIVFGGGTKLTVLGGGGSGGGGSGGGGSEVQLVESGGGLVQPGGSLRLSCAASGFTFSSYAMSWVRQAPGKGLEWVSTINSGTYSPYYADSVKGRFTISRDNSKNTLYLQMNSLRAEDTAVYYCAKNFFDGSWFLSPPAMDYWGQGTLVTVSSHHHHHH
notes: as for B4
In the case of B15, in assay [8], the SPR binding level is 689 RU.

B16: 25-AS170036 VL1VH1-57K108A (scFv)
scFv: QSALTQPRSVSGSPGQSVTISCAGTSSDVGSENYVSWYQQHPGKAPKLMIYQVNKRASGVPDRFSGSKSGNTASLTISGLQAEDEADYYCASYRSSDHNIVFGGGTKLTVLGGGGSGGGGSGGGGSEVQLVESGGGLVQPGGSLRLSCAASGFTFSSYAMSWVRQAPGKGLEWVSTINSGTGKPYYADSVKGRFTISRDNSKNTLYLQMNSLRAEDTAVYYCAKNFFDGSWFLAPPAMDYWGQGTLVTVSSHHHHHH
notes: as for B4
In the case of B16, in assay [8], the SPR binding level is 554 RU.

B17: 10-AS170036 VL1VH1-57K98F (scFv)
scFv: QSALTQPRSVSGSPGQSVTISCAGTSSDVGSENYVSWYQQHPGKAPKLMIYQVNKRASGVPDRFSGSKSGNTASLTISGLQAEDEADYYCASYRSSDFNIVFGGGTKLTVLGGGGSGGGGSGGGGSEVQLVESGGGLVQPGGSLRLSCAASGFTFSSYAMSWVRQAPGKGLEWVSTINSGTGKPYYADSVKGRFTISRDNSKNTLYLQMNSLRAEDTAVYYCAKNFFDGSWFLGPPAMDYWGQGTLVTVSSHHHHHH
notes: as for B4
Take B17: the SPR binding level in assay [8] was 614 RU.

As usually defined, the Kd is the concentration at which binding is half-saturated. One may read the koff as a measure of how fast the partners let go of each other. Read a high koff as a short-lived complex. As a reminder, the kon is the second-order rate constant of association. Low readings indicate slow association, high ones fast association.
